Measurements reported in the supplement of paper PMC6757056.
± gives the standard deviation of the averaged measurements.

B1: library; a variant is named by its letters at N, in order (parent)
chain: GCUGUCACCGGUGUAUUACCCUAGUGGUCGACCGGUCUGAUGAGUCUNNNNNNAGACGAAACAGC

How the values were obtained:
hypoxanthine [1] = variants of: B1; test: normalized RNA/DNA level with ligand (relative to sTRSVctl = 100) (log10 (% of sTRSVctl)); ligand: hypoxanthine (xanthine aptamer); higher = less ribozyme self-cleavage, higher mRNA level; conditions: ligand concentration (+) RNA-Seq: 5 mM, HEK293T, reporter: mCherry (pCS4076), ligand present: yes
Outline: (§1)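 Ribozyme switch library plasmids with mCherry reporters (eGFP in certain ligand experiments) went into HEK293T cells at 4 µg per 6-well well. Where ligand was used, it was applied 1 h before transfection, and total RNA was extracted with EDTA 72 h later for reverse transcription, amplification, barcoding and sequencing. RNA level is the RNA-to-DNA read ratio normalized to a spiked-in non-cleaving sequence or to the leading sequences, then scaled and log-transformed. Scaling was ×100 with log10, the leading set comprised 25 sequences, and the cutoff was ≥100 DNA reads.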

hypoxanthine [2] = variants of: B1; test: normalized RNA/DNA level without ligand (relative to sTRSVctl = 100) (log10 (% of sTRSVctl)); ligand: hypoxanthine (xanthine aptamer); higher = less ribozyme self-cleavage, higher mRNA level; conditions: HEK293T, reporter: mCherry (pCS4076), ligand present: no
Outline: as §1

Row | Variant | normalized RNA/DNA level with ligand (log10) (hypoxanthine [1]) | normalized RNA/DNA level without ligand (log10) (hypoxanthine [2])
1 | CGCUGG | 1.889 ± 0.0061 | 1.42 ± 0.024
2 | CGCUGU | 1.94 ± 0.06 | 1.9375 ± 0.00087
3 | AGUAAG | 1.82 ± 0.032 | 1.39 ± 0.024
4 | AGUAAC | 1.92 ± 0.035 | 1.798 ± 0.0049
5 | CGGCCU | 2.03 ± 0.021 | 1.93 ± 0.027
6 | CGGCCC | 1.979 ± 0.011 | 2.012 ± 0.0089
7 | CGGCCA | 1.96 ± 0.056 | 1.95 ± 0.027
8 | CGGUGG | 1.862 ± 0.011 | 1.37 ± 0.032
9 | CGGUGA | 1.93 ± 0.042 | 1.57 ± 0.042
10 | CGGUGC | 1.96 ± 0.052 | 1.8 ± 0.051
11 | GGGGCA | 1.941 ± 0.011 | 1.911 ± 0.01
12 | GGGGCG | 1.93 ± 0.057 | 1.748 ± 0.0076
13 | GGGGGA | 1.8897 ± 0.00058 | 1.77 ± 0.1
14 | GGGGGG | 1.94 ± 0.03 | 1.65 ± 0.049
15 | UGGCCG | 2.015 ± 0.00026 | 1.956 ± 0.006
16 | UGGCCC | 2.02 ± 0.022 | 1.99 ± 0.044
17 | UGGCCA | 1.97 ± 0.033 | 1.92 ± 0.046
18 | UGGCCU | 1.98 ± 0.043 | 2.008 ± 0.0053
19 | UGGCAC | 2 ± 0.034 | 1.913 ± 0.019
20 | UGGCAA | 1.917 ± 0.015 | 1.77 ± 0.03
21 | GGCUCC | 1.989 ± 0.014 | 1.898 ± 0.018
22 | GGCUCU | 2.03 ± 0.066 | 1.99 ± 0.064
23 | GGCUCG | 1.98 ± 0.027 | 1.834 ± 0.012
24 | CGGCGU | 1.929 ± 0.017 | 1.91 ± 0.06
25 | CGGCGC | 2.005 ± 0.013 | 1.93 ± 0.064
26 | CGGCGG | 1.889 ± 0.0076 | 1.48 ± 0.11
27 | CGGCGA | 1.95 ± 0.029 | 1.743 ± 0.017
28 | AGGACA | 1.89 ± 0.066 | 1.71 ± 0.042
